Measurements as given in patent US20150064204A1 (Amgen, published 2015).
Positions count from the first letter of the chain named.

T1: human GITR (human, UniProt Q9Y5U5 26-241)
T1 sequence: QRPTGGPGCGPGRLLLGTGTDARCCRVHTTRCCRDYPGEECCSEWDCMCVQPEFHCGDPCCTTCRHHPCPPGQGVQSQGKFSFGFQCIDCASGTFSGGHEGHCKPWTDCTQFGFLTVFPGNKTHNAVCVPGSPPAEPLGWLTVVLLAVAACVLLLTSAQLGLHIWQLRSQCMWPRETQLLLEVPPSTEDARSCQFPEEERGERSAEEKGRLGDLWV

B1: 7A10 (antibody, human IgG1, kappa, V domains shown)
VH: QVQLVESGGGVVQPGRSLRLSCAASGFTFSSYGMHWVRQAPGKGLEWMAVIWYVGSNKYYADSVKGRFTISRDNSKNTLYLQMNSLSAEDTAVYYCARGGELGRDYYSGMDVWGQGTTVTVSS
VL: DIQMTQSPSSLSASVGDRVTITCRASQGIRNDLGWYQQKPGKAPKRLIYAASSLQSGVPSRFSGSGSGTEFTLTISSLQPEDFATYYCQQHNSYPWTFGQGTKVEIKR
notes: Parental fully human antibody; also called Ab18; SS-10944
B2: 7A10v2 (antibody, human IgG1, kappa, V domains shown)
VH: B1 VH with S87R
VL: B1 VL with R46L
notes: Engineered variant; also called Ab40; SS-16938
B3: 7A10v3 (antibody, human IgG1, kappa, V domains shown)
VH: B1 VH with D62E, S87R
VL: B1 VL
notes: Engineered variant; also called Ab41; SS-16939
B4: 7A10v4 (antibody, human IgG1, kappa, V domains shown)
VH: B1 VH with S63T, S87R
VL: B1 VL
notes: Engineered variant; also called Ab42; SS-16940
B5: 7A10v5 (antibody, human IgG1, kappa, V domains shown)
VH: B1 VH with D62E, S87R
VL: B1 VL with R46L
notes: Engineered variant; also called Ab43; SS-16941
B6: 9H6 (antibody, human IgG1, kappa, V domains shown)
VH: B1 VH with A23V, V37I, M48V, V54E, S87R, E101R, R104K
VL: B1 VL with K45N, A51T, Q89L, S93T
notes: Parental fully human antibody; also called Ab19; SS-10945
B7: 9H6v1 (antibody, human IgG1, kappa, V domains shown)
VH: B1 VH with A23V, V37I, M48V, V54E, S87R, E101R, R104K
VL: B1 VL with A51T, Q89L, S93T
notes: Engineered variant; also called Ab44; SS-16943
B8: 9H6v2 (antibody, human IgG1, kappa, V domains shown)
VH: B1 VH with A23V, V37I, M48V, V54E, S87R, E101R, R104K
VL: B1 VL with R46L, A51T, Q89L, S93T
notes: Engineered variant; also called Ab45; SS-16944
B9: 9H6v4 (antibody, human IgG1, kappa, V domains shown)
VH: B1 VH with A23V, V37I, M48V, V54E, S63T, S87R, E101R, R104K
VL: B1 VL with A51T, Q89L, S93T
notes: Engineered variant; also called Ab47; SS-16945
B10: 9H6v5 (antibody, human IgG1, kappa, V domains shown)
VH: B1 VH with A23V, V37I, M48V, V54E, D62E, S87R, E101R, R104K
VL: B1 VL with R46L, A51T, Q89L, S93T
notes: Engineered variant; also called Ab48; SS-16946
B11: 9H6v6 (antibody, human IgG1, kappa, V domains shown)
VH: B1 VH with A23V, V37I, M48V, V54E, S63T, S87R, E101R, R104K
VL: B1 VL with R46L, A51T, Q89L, S93T
notes: Engineered variant; also called Ab49; SS-16947
B12: 33C9 (antibody, human IgG1, kappa, V domains shown)
VH: B1 VH with L4V, M48V, A49S, V54E, S87R, E101L, R104Y, D105Y, S108Y
VL: B1 VL with A50D, Q89L, N92H
notes: Parental fully human antibody; also called Ab2; SS-12413
B13: 41G5 (antibody, human IgG1, kappa, V domains shown)
VH: B1 VH with M48V, V54P, S87R, D105Y, S108Y
VL: B1 VL with I21V, Q89L, S93N, E105D
notes: Parental fully human antibody; also called Ab7; SS-12428
B14: 41G5v1 (antibody, human IgG1, kappa, V domains shown)
VH: B1 VH with M48V, V54P, S87R, D105Y, S108Y
VL: B1 VL with I21V, R46L, Q89L, S93N, E105D
notes: Engineered variant; also called Ab55; SS-16952
B15: 41G5v3 (antibody, human IgG1, kappa, V domains shown)
VH: B1 VH with M48V, V54P, S63T, S87R, D105Y, S108Y
VL: B1 VL with I21V, Q89L, S93N, E105D
notes: Engineered variant; also called Ab57; SS-16953
B16: 41G5v4 (antibody, human IgG1, kappa, V domains shown)
VH: B1 VH with M48V, V54P, D62E, S87R, D105Y, S108Y
VL: B1 VL with I21V, R46L, Q89L, S93N, E105D
notes: Engineered variant; also called Ab58; SS-16954
B17: 41G5v5 (antibody, human IgG1, kappa, V domains shown)
VH: B1 VH with M48V, V54P, S63T, S87R, D105Y, S108Y
VL: B1 VL with I21V, R46L, Q89L, S93N, E105D
notes: Engineered variant; also called Ab59; SS-16955
B18: 33C9v1 (antibody, human IgG1, kappa, V domains shown)
VH: B1 VH with L4V, M48V, A49S, V54E, S87R, E101L, R104Y, D105Y, S108Y
VL: B1 VL with R46L, A50D, Q89L, N92H
notes: Engineered variant; also called Ab50; SS-16948
B19: 33C9v3 (antibody, human IgG1, kappa, V domains shown)
VH: B1 VH with L4V, M48V, A49S, V54E, S63T, S87R, E101L, R104Y, D105Y, S108Y
VL: B1 VL with A50D, Q89L, N92H
notes: Engineered variant; also called Ab52; SS-16949
B20: 33C9v4 (antibody, human IgG1, kappa, V domains shown)
VH: B1 VH with L4V, M48V, A49S, V54E, D62E, S87R, E101L, R104Y, D105Y, S108Y
VL: B1 VL with R46L, A50D, Q89L, N92H
notes: Engineered variant; also called Ab53; SS-16950
B21: 5H7v5 (antibody, human IgG1, kappa, V domains shown)
VH: QVQLQESGPGLVKPSETLSLTCTVSGGSISSGGYFWSWIRQPPGKGLEWIGYIYYSGTTYYNPSLKSRVTISIDTSKNQFSLKLSSVTAADTAVYYCARDLFYYESSGPRGFEPWGQGTLVTVSS
VL: EIVLTQSPGTLSLSPGERATLSCRASQTVSSNYLAWYQQKPGQAPRLLIYGSSTRATGIPDRFSGSGSGTDFTLTISRLEPEDFAVYYCQQYDSSPWTFGQGTKVEIKR
B22: 5H7v10 (antibody, human IgG1, kappa, V domains shown)
VH: B21 VH with E105D, E113D
VL: B21 VL with D93E
B23: 5H7v11 (antibody, human IgG1, kappa, V domains shown)
VH: B21 VH with E105D, E113D
VL: B21 VL with S94T
B24: 5H7v13 (antibody, human IgG1, kappa, V domains shown)
VH: B21 VH with E105D, S106T, E113D
VL: B21 VL with D93E
B25: 5H7v17 (antibody, human IgG1, kappa, V domains shown)
VH: B21 VH with E105D, S106T, E113D
VL: B21 VL with S94T
B26: 5H7v1 (antibody, human IgG1, kappa, V domains shown)
VH: B21 VH with E113D
VL: B21 VL

molecular target: T1, human GITR; assay: cell-based or functional assay

Binder	Proliferation (Fold over CD3)	Proliferation EC50
B1	3.4 fold over CD3	12 ng/mL
B2	0.7 fold over CD3	43 ng/mL
B3	55 fold over CD3	46 ng/mL
B4	60 fold over CD3	6 ng/mL
B5	0.6 fold over CD3	20 ng/mL
B6	3 fold over CD3	7 ng/mL
B7	3.2 fold over CD3	4 ng/mL
B8	2.2 fold over CD3	19 ng/mL
B9	3.3 fold over CD3	7 ng/mL
B10	1.9 fold over CD3	11 ng/mL
B11	1.5 fold over CD3	11 ng/mL
B12	2.7 fold over CD3	10 ng/mL
B13	3.7 fold over CD3	4 ng/mL
B14	2.9 fold over CD3	17 ng/mL
B15	3.4 fold over CD3	7 ng/mL
B16	2.2 fold over CD3	15 ng/mL
B17	2.5 fold over CD3	12 ng/mL
B18	2.1 fold over CD3	18 ng/mL
B19	3.1 fold over CD3	25 ng/mL
B20	2.6 fold over CD3	17 ng/mL
B21	1.4 fold over CD3	21 ng/mL
B22	0.6 fold over CD3	39 ng/mL
B23	2 fold over CD3	32 ng/mL
B24	1.2 fold over CD3	113 ng/mL
B25	3 fold over CD3	24 ng/mL
B26	1 fold over CD3	33 ng/mL

molecular target: T1, human GITR; assay: flow cytometry on activated human T cells

Binder	EC50
B1	0.067 µg/mL
B2	0.861 µg/mL
B3	0.003 µg/mL
B4	0.002 µg/mL
B5	0.783 µg/mL
B6	0.134 µg/mL
B7	0.144 µg/mL
B8	0.423 µg/mL
B9	0.095 µg/mL
B10	0.38 µg/mL
B11	0.411 µg/mL
B12	0.06 µg/mL
B13	0.055 µg/mL
B14	0.06 µg/mL
B15	0.06 µg/mL
B16	0.068 µg/mL
B17	0.064 µg/mL
B18	0.078 µg/mL
B19	0.056 µg/mL
B20	0.082 µg/mL
